Among the data in patent publication US20090181019A1 are IC50, inhibition of IL-1β stimulated release of IL-8 in human whole blood (100 pM rhIL-1β, IL-8 ELISA) values, retold here.

The target in this experiment is IL-1 receptor (human) (UniProt P14778). As to the kind of experiment: cell-based or functional assay.
UniProt P14778, sequence (P14778 18-569): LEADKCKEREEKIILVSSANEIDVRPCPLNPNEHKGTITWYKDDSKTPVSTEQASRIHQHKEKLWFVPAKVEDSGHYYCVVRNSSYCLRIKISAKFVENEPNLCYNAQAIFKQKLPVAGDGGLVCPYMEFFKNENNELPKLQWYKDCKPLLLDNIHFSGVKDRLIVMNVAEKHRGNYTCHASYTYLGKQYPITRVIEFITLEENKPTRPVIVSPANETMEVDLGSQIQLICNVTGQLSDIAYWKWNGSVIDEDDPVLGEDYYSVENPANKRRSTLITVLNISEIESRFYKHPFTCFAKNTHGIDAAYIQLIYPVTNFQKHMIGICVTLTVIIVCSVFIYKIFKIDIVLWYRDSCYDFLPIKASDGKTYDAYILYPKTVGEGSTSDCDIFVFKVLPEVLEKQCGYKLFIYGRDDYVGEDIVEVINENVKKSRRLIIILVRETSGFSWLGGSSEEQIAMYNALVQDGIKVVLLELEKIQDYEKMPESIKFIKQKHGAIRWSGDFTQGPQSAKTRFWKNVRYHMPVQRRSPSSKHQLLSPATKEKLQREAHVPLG

“Kineret® (anakinra) (from UniProt P18510 26-177) (ligand)” gave an IC50, inhibition of IL-1β stimulated release of IL-8 in human whole blood (100 pM rhIL-1β, IL-8 ELISA) of 53.4 pM.
